Measurements from PMC10469194.

Molecular target: REGN10987-based FabH3 heavy chain (VH - GS-G4 linker - IgG1 CH3 K392D, K409D)
Test: pull-down; co-purification from the soluble E. coli lysate by cobalt IMAC on the His6 tag of the heavy chain, native conditions; SDS-PAGE

REGN10987-based FabH3 heavy chain (VH - GS-G4 linker - IgG1 CH3 K392D, K409D), sequence (heavy, as listed by the source): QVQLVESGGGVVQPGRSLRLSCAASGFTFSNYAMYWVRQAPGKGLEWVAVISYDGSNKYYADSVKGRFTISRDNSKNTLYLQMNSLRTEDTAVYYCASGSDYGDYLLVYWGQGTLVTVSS

stoichiometry N: 1
Substance: REGN10987-based FabH3 light chain (VL - GS-G4 linker - IgG1 CH3 E356K, D399K)
